Experimental data reported in PMC9653972, “Thermophilic Inorganic Pyrophosphatase Ton1914 from Thermococcus onnurineus NA1 Removes the Inhibitory Effect of Pyrophosphate” (International Journal of Molecular Sciences, 2022).

Substrate: O=P(O)(O)OP(=O)(O)O
Assay: purified protein
Assay type: biochemical, Thermococcus onnurineus
Conditions: standard assay: 2 mM MgCl2, 50 mM Tris-HCl, 80 °C, optimum pH 9.0 (pH of the kinetic run not stated)

B1: Ton1914 (Thermococcus onnurineus NA1) (protein)
chain: MNPFHELEPGPEVPEVVYALIEIPKGSRNKYELDKKTGLLKLDRVLYSPFFYPVDYGIIPQTWYDDGDPFDIMVIMREPVYPLTIVEARPIGIMKMEDSGDKDWKVLAVPVEDPYFNDWKDIDDVPKAFLDEIAHFFQRYKELQGKVTTVEGWGTAEEAKREILRAIEMYKEKFGKKE
notes: about 120 kDa native-PAGE, homo-hexamer; pET28a Nco I/Xho I, E. coli BL21(DE3), heat-purified 80 °C; EC 3.6.1.1, Family I
With B1 the Km was 1.116 mM, the kcat was 30000 s⁻¹ and the kcat/Km was 2.68e+07 M⁻¹ s⁻¹.
